Read-outs that look alike come from different tables or passages of the source.
Tests used:
human PD-L1-Fc [1] = biological target: T1, human PD-L1-Fc (human, UniProt Q9NZQ7 19-238); test: SPR, PD-L1-Fc captured, scFv analyte
T1 construct: also called recombinant PD-L1-Fc fusion protein
Method: The assay was run with Biacore T200 control software version 2.0. Anti-human Fc antibody was immobilized on flow cell 1 and 2 of CM5 sensor chip. […] The flow cells were then regenerated with antibody regeneration buffer (GE Healthcare) for 30 seconds at flow rate of 30 μl/min.
(§1) The production, the binding, and all of the characterization assays for selected affinity matured scFv clones were performed as described above.

[2] = biological target: T2, full-length human PD-L1 on K562 cells (human, UniProt Q9NZQ7 19-290); test: FACS, PD-L1/K562 cells
T2 construct: also called PD-L1/K562; cell surface human PD-L1
Method: (§2) Cells were spun down at 1200 rpm for 5 minutes at 4° C. to remove primary antibodies. Cells were then washed once with 200 μL of full medium per well. […] Samples were spun down at 1200 rpm for 5 minutes at 4° C. and washed twice with 200 μL of 1×PBS per well. Samples were reconstituted in 200 μL of 1×PBS and were read on Attune NxT cytometer.
as §1

[3] = biological target: PD-L1 on PD-L1 aAPC/CHOK1 cells (Promega J1250); test: cell-based or functional assay
[4] = biological target: T3, PD-L1 biotinylated (PD-1/PD-L1 TR-FRET assay kit, BPS 72038) (Homo sapiens (Human), UniProt Q9NZQ7 19-238, biotinylated; site not stated); test: HTRF PD-1/PD-L1 competition (PD-1-Eu and biotinylated PD-L1), % activity; blocked ligand PD-1-Eu
T3 construct: Kit reagent
Method: (§3) Briefly, 1× Immuno buffer 1 was made. […] For each well in 384-well plate, serial diluted scFvs and regents were added according to manufacturer's recommended volume. Samples were incubated at room temperature for 1.5 hours then the fluorescent intensity was read with Biotek Neo2 plate reader using manufacture's instrument setting for the assay.
as §1

human PD-L1-Fc [5] = biological target: T1, human PD-L1-Fc; test: ELISA, coated PD-L1-Fc, anti-FLAG HRP
Method: (§4) The plate was incubated overnight at 4° C. followed by blocking with 80 μL of superblock per well for 1 hour. […] In between each step, the plate was washed 3 times with 1×PBST in a plate washer. The plate was then developed with 20 μL of TMB substrate for 5 min and stopped by adding 20 μL of 2N sulfuric acid. The plate was read at OD450 nm Biotek plate reader and then plotted in Prism 8.1 software.
as §1

[6] = biological target: T4, recombinant His-tagged human IL-2Rβ (human, UniProt P14784 27-240, limits assumed); test: SPR, Protein A capture, IL-2Rβ-HIS analyte
T4 construct: also called IL-2Rβ-HIS; IL-15Rβ-HIS
T4 sequence (looked up): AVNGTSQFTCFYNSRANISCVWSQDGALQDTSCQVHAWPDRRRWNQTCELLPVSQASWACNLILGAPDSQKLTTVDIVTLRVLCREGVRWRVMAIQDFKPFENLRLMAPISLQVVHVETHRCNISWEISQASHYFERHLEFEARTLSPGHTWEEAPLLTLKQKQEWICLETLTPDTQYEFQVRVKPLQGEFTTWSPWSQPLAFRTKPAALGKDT
Method: (§5) The assay was run with Biacore T200 control software version 2.0. For each cycle, 1 μg/mL of anti-hPD-L1/IL-2 was captured for 60 seconds at flow rate of 10 μL/min on flow cell 2 in 1×HBSP buffer on Protein A sensor chip. […] The flow cells were then regenerated with Glycine pH2 for 60 seconds at flow rate of 30 μL/min. […] The specific binding response unit was derived from subtraction of binding to reference flow cell 1 from antibody captured flow cell 2.

[7] = biological target: T4, recombinant His-tagged human IL-2Rβ; test: ELISA, coated His-tagged IL-2Rβ
Method: For monovalent IL-2 Fc-fusion proteins, recombinant His-tagged human IL-2Rα and IL-2Rβ were added in 25 μL of 1×PBS to wells of 384-well plate and incubated overnight at 4° C. to coat the plates. Plates were washed three times with 0.05% Tween20/1×PBS. Plates were blocked with 100 μL of SuperBlock for 1 hr at RT and then washed 3 times with 0.05% Tween20/1×PBS. IL-2 mutants were diluted in 0.05% Tween 20/1×PBS from 1000 nM to 0 nM and added to plates for 2 hrs at room temperature. Plates were then washed 6 times with 0.05% Tween20/1×PBS. Anti-HisTag-HRP was diluted 1:5000 in 0.05% Tween20/1×PBS and added to plates for 1 hr at RT. Plates were then washed 6 times with 0.05% Tween 20/1×PBS, and TMB was added to develop blue color. Reactions were stopped with 2N […] and light absorbance at 450 nm was read on a BioTek plate reader. Absorbance versus IL-2 concentration is graphed for human IL-2Rα and IL-2Rβ. […]

biotinylated PD-L1 = biotinylated PD-L1 (Homo sapiens (Human), UniProt Q9NZQ7 19-238, biotinylated; site not stated); test: ELISA, anti-human Fc capture, biotinylated PD-L1
Method: A 384 well plate was immobilized with anti-human Fc at final concentration of 2 μg/mL in 1×PBS in total volume of 25 μL per well. The plate was incubated overnight at 4C followed by blocking with 80 μL of superblock per well for 1 hour. […] In between each step, the plate was washed 3 times with 1×PBST in a plate washer. The plate was then developed with 25 μL of TMB substrate for 5 min and stopped by adding 25 μL of 2N sulfuric acid. The plate was read at OD450 nm Biotek plate reader and the binding correlation was plotted with Prism 8.1 software. The ELISA binding assays of the antibodies to IL-2Rα and IL-2Rβ receptors were performed as described in Example 6.

[8] = biological target: T5, recombinant His-tagged human IL-2Rα (human, UniProt P01589 22-213, limits assumed); test: ELISA, coated His-tagged human IL-2Rα, OD 450 nm
T5 construct: also called IL-2Rα-HIS; CD25
T5 sequence (looked up): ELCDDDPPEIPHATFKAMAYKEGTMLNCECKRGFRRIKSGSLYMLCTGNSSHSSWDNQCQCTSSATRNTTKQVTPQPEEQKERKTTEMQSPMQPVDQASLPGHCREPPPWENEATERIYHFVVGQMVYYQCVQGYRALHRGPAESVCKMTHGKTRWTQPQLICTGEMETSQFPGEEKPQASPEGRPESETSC
Method: For monovalent IL-2 Fc-fusion proteins, recombinant His-tagged human IL-2Rα and IL-2Rβ were added in 25 μL of 1×PBS to wells of 384-well plate and incubated overnight at 4° C. to coat the plates. Plates were washed three times with 0.05% Tween20/1×PBS. Plates were blocked with 100 μL of SuperBlock for 1 hr at RT and then washed 3 times with 0.05% Tween20/1×PBS. IL-2 mutants were diluted in 0.05% Tween 20/1×PBS from 1000 nM to 0 nM and added to plates for 2 hrs at room temperature. Plates were then washed 6 times with 0.05% Tween20/1×PBS. Anti-HisTag-HRP was diluted 1:5000 in 0.05% Tween20/1×PBS and added to plates for 1 hr at RT. Plates were then washed 6 times with 0.05% Tween 20/1×PBS, and TMB was added to develop blue color. Reactions were stopped with 2N […] and light absorbance at 450 nm was read on a BioTek plate reader. Absorbance versus IL-2 concentration is graphed for human IL-2Rα and IL-2Rβ.
A 384 well plate was immobilized with anti-human Fc at final concentration of 2 μg/mL in 1×PBS in total volume of 25 μL per well. The plate was incubated overnight at 4C followed by blocking with 80 μL of superblock per well for 1 hour. […] In between each step, the plate was washed 3 times with 1×PBST in a plate washer. […] The plate was read at OD450 nm Biotek plate reader and the binding correlation was plotted with Prism 8.1 software. […]

[9] = biological target: T6, human PD-L1-HIS tagged recombinant protein (human, UniProt Q9NZQ7 19-238); test: SPR, Protein A capture, PD-L1-HIS analyte
T6 construct: also called hPD-L1-HIS; PD-L1 HIS tagged protein
Method: as §5

[10] = biological target: PD-L1 on PD-L1 aAPC/CHOK1 cells (Promega J1250); test: cell-based or functional assay; remark: listed apart in the source
[11] = biological target: T3, PD-L1 biotinylated (PD-1/PD-L1 TR-FRET …); test: HTRF competition, competitor PD-1-Eu
Method: as §3

[12] = biological target: T4, recombinant His-tagged human IL-2Rβ; test: SPR, Protein A capture, IL-2Rβ-HIS analyte, steady state affinity
Method: as §5

[13] = biological target: T2, full-length human PD-L1 on K562 cells; test: FACS, PD-L1/K562 cells; remark: listed apart in the source
Method: as §2

[14] = biological target: PD-L1 on PD-L1 aAPC/CHOK1 cells (Promega J1250); test: cell-based or functional assay; remark: listed apart in the source
human PD-L1-Fc [15] = biological target: T1, human PD-L1-Fc; test: ELISA, coated PD-L1-Fc, anti-FLAG HRP; remark: listed apart in the source
Method: as §4

B1: 2019EP69-F03 scFv (scFv, not shown: small tags and cut ends)
scFv: QVQLVQSGAEVKKPGSSVKVSCKASGGTFSSYAISWVRQAPGQGLEWMGGIIPIFGTANYAQKFQGRVTITADESTSTAYMELSSLRSEDTAVYYCARDKWYGSAWRGDYWGQGTLVTVSSGGGGSGGGGSGGGGSQSVLTQPPSASGTPGQRVTISCSGSYSNIGSNFVNWYQQLPGTAPKLLIHFNNQRPSGVPDRFSGSRSGTSASLAISGLQSEDEADYFCSTWDDSLKGPIFGGGTKLTVL
For B1, the Kd (human PD-L1-Fc [1]) was 0.0797 nM, the koff (human PD-L1-Fc [1]) was 9.87e-05 s⁻¹ and the kon (human PD-L1-Fc [1]) was 1.24e+06 M⁻¹ s⁻¹. The EC50 [2] was 0.115 nM, the “Jurkat NFAT reporter assay EC50” value [3] was 123 nM and the “IC50 (read off the curve)” value [4] was roughly 100 nM. It also gave an EC50 (human PD-L1-Fc [5]) of 0.696 nM.

B2: IL-2/anti-PD-L1 scFv Fc EP413/EP326 (bispecific antibody)
chain 1: not shown
chain 2: QVQLVQSGAEVKKPGSSVKVSCKASGGTFSSYAISWVRQAPGQGLEWMGGIIPIFGTANYAQKFQGRVTITADESTSTAYMELSSLRSEDTAVYYCARDKWYGSAWRGDYWGQGTLVTVSSGGGGSGGGGSGGGGSQSVLTQPPSASGTPGQRVTISCSGSYSNIGSNFVNWYQQLPGTAPKLLIHFNNQRPSGVPDRFSGSRSGTSASLAISGLQSEDEADYFCSTWDDSLKGPIFGGGTKLTVLDKTHTCPPCPAPEAAGGPSVFLFPPKPKDTLMISRTPEVTCVVVDVSHEDPEVKFNWYVDGVEVHNAKTKPREEQYNSTYRVVSVLTVLHQDWLNGKEYKCKVSNKALGAPIEKTISKAKGQPREPQVCTLPPSRDELTKNQVSLSCAVKGFYPSDIAVEWESNGQPENNYKTTPPVLDSDGSFKLVSKLTVDKSRWQQGNVFSCSVMHEALHNHYTQKSLSLSPGK
notes: IL2 EP001 carrying K35L/R38D/F42R
In the case of B2, the Kd [6] is reported as 6.5 nM, the koff [6] is reported as 0.0107 s⁻¹ and the kon [6] is reported as 1.65e+06 M⁻¹ s⁻¹. For the same binder, the EC50 [7] was 0.545 nM, the EC50 (biotinylated PD-L1) was 0.345 nM and the binding result [8] was “no binding (tested: LOG(IL-2(nM)) 2 (100 nM))”. It also gave a Kd [9] of 0.507 nM, a koff [9] of 0.000247 s⁻¹ and a kon [9] of 487000 M⁻¹ s⁻¹.

B3: IL-2/anti-PD-L1 scFv Fc EP418/EP326 (bispecific antibody)
chain 1: not shown
chain 2: B2 chain 2
notes: IL2 EP340
B3 was tested, and the “NFAT reporter EC50” value [10] was 9.07 nM, the IC50 [11] was 346 nM and the EC50 (biotinylated PD-L1) was 0.287 nM. It also gave a Kd [12] of 75.8 nM and a Kd [9] of 0.547 nM.

B4: 2018EP280-E01 scFv (scFv, V domains shown)
VH: EVQLVESGGGLVKPGGSLRLSCAASGLTFSNAWMSWVRQAPGKGLEWVGRIKSKTDGGTTEYAAPVKGRFTISRDDSKNTLYLQMSSLKTEDTAVYYCTIVYYYDSSGPVFFQHWGQGTLVTVSS
VL: QSVLTQPPSASATPGQRVTISCSGSDSNIATNYVYWYQQFPGTAPKLLIYRNHQRPSGVPDRFSGSRSGTSASLAISGLRSEDEADYYCATWDDSVNSWVFGGGTKLTVL
notes: not shown: scFv linker and domain order of the library scFv
For B4, the EC50 [13] was 10.8 nM, the “Jurkat NFAT reporter assay EC50” value [14] was 400 nM and the IC50 [11] was 76.8 nM. It also gave an EC50 (human PD-L1-Fc [15]) of 8.1 nM.

B5: 2018EP280-E04 scFv (scFv, V domains shown)
VH: QVQLQQWGAGLLKPSETLSLTCAVYGGSFSGYYWSWIRQPPGKGLEWIGEINHIGSTNYNPSLKSRVTISVDTSNNQFSLKLSSVTAADTAVYYCARGRRLRYFDWAAYNWFDPWGQGTLVTVSS
VL: QSALTQDPAVSVALGQTVRISCQGDSLRSHYASWYQQKPGQAPVVVVYDNSDRPSGIPDRFSGSNSGNTATLTISRVEVGDEADYYCQVWDSSSDHYVFGTGTKVTVL
notes: as for B4
For B5, the EC50 [13] was 5.51 nM, the “Jurkat NFAT reporter assay EC50” value [14] was 133 nM and the IC50 [11] was 38.5 nM.

B6: 2018EP161-G08 scFv (scFv, V domains shown)
VH: not shown
VL: VIWMTQSPSSLSASLGDRVTITCRASQSVSTYINWYQQKSGKGPKLLIFNASTLQSGVPSRFSGSGSGTDFTLTITSLQPDDSATYYCQQSYRVPLSFGGGTKVEIR
For B6, the EC50 (human PD-L1-Fc [15]) was 1.16 nM.

B7: 2018EP170-E06 scFv (scFv, V domains shown)
VH: EVQLVQSGAEVKKPGSSVKVSCKASGGTFSSYAISWVRQAPGQGLEWMGGIIPIFGTANYAQKFQGRVTITADESTSTAYMELSSLRSEDTAVYYCARDSRWGPAPHAFDIWGQGTMVTVSS
VL: QQSVLTQPASVSGSPGQSITISCTGTSSDIGSYNLVSWYQNHPGKAPKLILYEITKRPSGVSSRFSGSKSGNAASLTISGLQAEDEAEYFCCSYAGLSVFFVFGGGTKL
Binder B7 has an EC50 [13] of 35.9 nM and an EC50 (human PD-L1-Fc [15]) of 158 nM.
